This is an account of results in patent US11459369B2, “Fusion protein for alpha-melanocyte stimulating hormone and preparation method and use thereof” (LANZHOU UNIVERSITY, priority 2015, dated 2022).

Data set [1] is described as follows: Validation of the ability to cross the BBB: level of fusion protein in hippocampal tissue homogenate by HSA ELISA. The class given is in vivo. The following applies: mice, 1 μm/kg single intravenous injection, hippocampal tissue 6 h after administration. The method, then:
Validation of the Ability to Across BBB of PTD-HSA-L-α-MSH
HSA Elisa Kit (cygnustechnologies).
10 mice (18-22 g) were used in the experiment, and were purchased from Laboratory Animal Center of Lanzhou University.
Mice were housed in groups of at most five animals per cage with clean water and food available ad libitum. PTD-HSA-L-α-MSH or HSA-L-α-MSH were given at a dosage of 1 μm/kg through a single intravenous injection in 150 μL volume. Mice were anesthetized 6 h after drug administration. The hippocampal tissue was harvest and homogenized immediately. Finally the level of PTD-HSA-L-α-MSH or HSA-L-α-MSH in hippocampal tissue homogenate was tested by ELISA.

The conditions of data set [2]: rat, iv administration, full length peptide; cited from earlier work.
The next data set deals with TNF-α. The data set can be described thus: Experimental brain inflammation of mouse induced by LPS: TNF-α in hippocampal tissue homogenate by ELISA. In kind it is in vivo. The following applies: mice. The source says: Neuroprotection of TAT-HSA-α-MSH on Experimental Brain Inflammation in Mice
TNF-a Elisa Kit (Dakewei, China).
20 mice (18-22 g) were used in the experiment, and were purchased from Laboratory Animal Center of Lanzhou University.
Lipopolysaccharide (LPS), a gram negative bacterial endotoxin, is the cell wall component of gram negative bacteria. Within the CNS, LPS challenge triggers central inflammatory responses, which results in releasing of proinflammatory mediators such as TNF-α. Therefore, to determine whether the described PTD-HSA-L-α-MSH can inhibit the production of pro-inflammatory factors in vivo, experimental brain inflammation of mouse induced by LPS was established, in which TNF-α was analyzed to detect the efficacy of PTD-HSA-L-α-MSH.
Mice were housed in groups of at most five animals per cage with clean water and food available ad libitum. The mice in control group were injected with 150 μL saline two times. The mice in LPS group were injected with 150 μL LPS at the dose of 5 mg/kg, and then injected with 150 μL saline. The mice in PTD-HSA-L-α-MSH+LPS group were injected with 150 μL LPS at the dose of 5 mg/kg, and then injected with 150 μL PTD-HSA-L-α-MSH at the dose of 1 μm/kg. The mice in α-MSH+LPS group were injected with 150 μL LPS at the dose of 5 mg/kg, and then injected with 150 μL α-MSH at the dose of 1 μm/kg. Mice were anesthetized 2 h after drug administration. […]

On to “HSA-L-α-MSH: fusion protein of HSA, linker and α-MSH without PTD; amino acid sequence SEQ ID NO:10, about 69 KDa; comparator”, for which the “PTD-HSA-L-α-MSH(ng/mL), level in hippocampal tissue homogenate tested by ELISA” value in data set [1] worked out at 0.06 ± 0.02 ng/mL.

Regarding “α-Melanocyte stimulating hormone [α-MSH, reference compound]”, in data set [2], the half-life entry is “a few minutes”. The “TNF-α (pg/mg protein) in hippocampal tissues tested by ELISA” value in the data set on TNF-α (LPS 5 mg/kg then substance 1 μm/kg, hippocampal tissue 2 h after administration) is reported as 155.8 ± 10.3 pg/mg protein. In addition, in the data set on TNF-α (LPS 5 mg/kg, single dose of 1 μm/kg intraperitoneally), the “effect on TNF-α increase compared with LPS group” value is “could not be suppressed”.
